The text below walks through data of US20180155451A1 (published 2018).

For test [1], the target named is T1, FcγRIIIa extracellular domain with C-terminal His tag (human, UniProt P08637 17-208).
T1 construct: extracellular domain; also called FcgRIIIa; 3a; not shown: His tag at the C terminus
As to the kind of experiment: SPR (Biacore), antibody captured via antigen peptide, FcγR as analyte; binding relative to GpH7-A5/GpH7-B3/GpL16-k0 = 100. (In general: SPR reads the build-up and loss of mass on a sensor chip optically.)

Test [2] concerns the target T2, FcγRIIb extracellular domain with C-terminal His tag (human, UniProt P31994 43-217).
T2 construct: extracellular domain; also called FcgRIIb; 2b; not shown: His tag at the C terminus
T2 sequence (looked up): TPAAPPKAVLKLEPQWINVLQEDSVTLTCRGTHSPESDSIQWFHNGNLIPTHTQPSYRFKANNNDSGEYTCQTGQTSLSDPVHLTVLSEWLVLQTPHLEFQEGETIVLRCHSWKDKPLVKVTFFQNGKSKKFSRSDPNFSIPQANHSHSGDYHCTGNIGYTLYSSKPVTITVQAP
The test is described as above.

For test [3], the target named is T3, FcγRIIa H (human, UniProt P12318 34-217).
T3 construct: extracellular domain; Soluble His-tagged extracellular domain expressed in FreeStyle293 cells; also called FcγRIIa type H; FcgRIIa H; not shown: His tag attached to the C terminus
T3 sequence (looked up): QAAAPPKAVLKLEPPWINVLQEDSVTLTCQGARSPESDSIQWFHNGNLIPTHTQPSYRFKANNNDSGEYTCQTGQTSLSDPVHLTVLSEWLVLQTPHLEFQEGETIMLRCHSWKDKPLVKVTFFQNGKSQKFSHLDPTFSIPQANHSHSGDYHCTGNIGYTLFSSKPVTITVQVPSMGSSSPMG
Kind of test: SPR (Biacore); He/Con_2aH divided by He/Con_2b (FcγRIIb) of the same antibody. On the procedure: The heterodimerized antibodies He Abs in which one of the H chains was introduced with an alteration were assayed for their binding activities to each activating FcγR and inhibitory FcγR according to the method described in Example 4. […] The activating FcγRs in FIGS. 26, 27, 28, and 29 are FcγRIa, FcγRIIa (R), FcγRIIa (H), and FcγRIIIa, respectively.
(§1) Analysis of interaction between objective antibody and the FcγR was carried out using Biacore T100 (GE Healthcare). HBS-EP+ (GE Healthcare) was used as the running buffer, and the measurement temperature was set to 25° C. Chips produced by immobilizing the antigen peptide by the amine coupling method to a Series S Sencor Chip CM5 (GE Healthcare), or alternatively, chips produced by allowing preliminarily biotinylated antigen peptides to interact with and immobilize onto a Series S Sensor Chip SA (certified) (GE Healthcare) were used. Antibodies of interest were captured onto an antigen peptide-immobilized chip, and allowed to interact to each FcγR diluted with running buffer. To regenerate and repeatedly use the chip, the antibodies captured on the chip were washed off by reacting 10 mM glycine-HCl, pH 1.5.

Test [4] addresses T3, FcγRIIa H. Kind of test: SPR (Biacore), captured antibody, FcγR analyte; relative to GpH7-A5/GpH7-B3/GpL16-k0 = 100. On the procedure:
as §1
(§2) The FcγR-binding activity of each antibody was assessed primarily using as an indicator the FcγR-binding activity and dissociation constant for FcγR.

The next test addresses T4, FcγRIIb (human, UniProt P31994 43-217).
T4 construct: extracellular domain; Soluble His-tagged extracellular domain expressed in FreeStyle293 cells; also called FcgRIIb; 2b; not shown: His tag attached to the C terminus
T4 sequence (looked up): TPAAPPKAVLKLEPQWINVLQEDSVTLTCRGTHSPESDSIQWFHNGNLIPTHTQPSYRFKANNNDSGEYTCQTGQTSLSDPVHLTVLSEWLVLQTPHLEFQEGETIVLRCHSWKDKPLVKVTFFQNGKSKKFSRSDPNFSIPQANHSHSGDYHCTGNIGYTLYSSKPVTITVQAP
Described as above. Here is the method:
as §1, §2

T1 sequence (P08637 17-208): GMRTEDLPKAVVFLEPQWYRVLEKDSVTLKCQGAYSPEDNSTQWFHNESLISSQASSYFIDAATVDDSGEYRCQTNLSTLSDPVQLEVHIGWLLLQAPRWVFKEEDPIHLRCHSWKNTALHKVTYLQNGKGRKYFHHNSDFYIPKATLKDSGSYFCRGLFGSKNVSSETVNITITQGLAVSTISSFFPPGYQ

B1: GpH7-A5/GpH7-B3 variant I336_02A/GpL16-k0 (antibody, human IgG1, kappa)
heavy 1: not shown
heavy 2: not shown
light: DIVMTQSPLSLPVTPGEPASISCQASESLVHSNRNTYLHWYLQKPGQSPQLLIYKVSNRFSGVPDRFSGSGSGTDFTLKISRVEAEDVGVYYCSQNTHVPPTFGQGTKVEIERTVAAPSVFIFPPSDEQLKSGTASVVCLLNNFYPREAKVQWKVDNALQSGNSQESVTEQDSKDSTYSLSSTLTLSKADYEKHKVYACEVTHQGLSSPVTKSFNRGEC
notes: He Ab: the mutation stands only in the GpH7-B3-derived H chain; also called He Ab I336A
Consider B1, for which the He/Con_3a in test [1] was 111 relative (control = 100). Besides, the He/Con_2b in test [2] is 84.9 relative (control = 100).

B2: GpH7-A5/GpH7-B3 variant S337_04F/GpL16-k0 (antibody, human IgG1, kappa)
heavy 1: not shown
heavy 2: not shown
light: DIVMTQSPLSLPVTPGEPASISCQASESLVHSNRNTYLHWYLQKPGQSPQLLIYKVSNRFSGVPDRFSGSGSGTDFTLKISRVEAEDVGVYYCSQNTHVPPTFGQGTKVEIERTVAAPSVFIFPPSDEQLKSGTASVVCLLNNFYPREAKVQWKVDNALQSGNSQESVTEQDSKDSTYSLSSTLTLSKADYEKHKVYACEVTHQGLSSPVTKSFNRGEC
notes: He Ab: the mutation stands only in the GpH7-B3-derived H chain; also called He Ab S337F
On to B2, for which the He/Con_3a in test [1] was 101 relative (control = 100). Besides, the He/Con_2b in test [2] was 97.8 relative (control = 100).

B3: GpH7-A5/GpH7-B3 variant P331_20W/GpL16-k0 (antibody, human IgG1, kappa)
heavy 1: not shown
heavy 2: not shown
light: DIVMTQSPLSLPVTPGEPASISCQASESLVHSNRNTYLHWYLQKPGQSPQLLIYKVSNRFSGVPDRFSGSGSGTDFTLKISRVEAEDVGVYYCSQNTHVPPTFGQGTKVEIERTVAAPSVFIFPPSDEQLKSGTASVVCLLNNFYPREAKVQWKVDNALQSGNSQESVTEQDSKDSTYSLSSTLTLSKADYEKHKVYACEVTHQGLSSPVTKSFNRGEC
notes: Heterodimerized anti-glypican-3 IgG1; mutation in the GpH7-B3 H chain only; also called He Ab
As to B3, in the test with FcγRIIa H [3], the He_2aH/2b was found to be 0.75 ratio. Further, the He/Con_2aH in the test with FcγRIIa H [4] was 82.8 relative (control = 100). Further, the He/Con_2b in the test with FcγRIIb is 111 relative (control = 100).

B4: GpH7-A5/GpH7-B3 variant P331_16H/GpL16-k0 (antibody, human IgG1, kappa)
heavy 1: not shown
heavy 2: not shown
light: DIVMTQSPLSLPVTPGEPASISCQASESLVHSNRNTYLHWYLQKPGQSPQLLIYKVSNRFSGVPDRFSGSGSGTDFTLKISRVEAEDVGVYYCSQNTHVPPTFGQGTKVEIERTVAAPSVFIFPPSDEQLKSGTASVVCLLNNFYPREAKVQWKVDNALQSGNSQESVTEQDSKDSTYSLSSTLTLSKADYEKHKVYACEVTHQGLSSPVTKSFNRGEC
notes: as for B3
For the molecule B4, in the test with FcγRIIa H [3], the He_2aH/2b stood at 0.73 ratio. Further, the He/Con_2aH with FcγRIIa H [4] is 84.5 relative (control = 100). The He/Con_2b with FcγRIIb is 116 relative (control = 100).

B5: GpH7-A5/GpH7-B3 variant I336_10E/GpL16-k0 (antibody, human IgG1, kappa)
heavy 1: not shown
heavy 2: not shown
light: DIVMTQSPLSLPVTPGEPASISCQASESLVHSNRNTYLHWYLQKPGQSPQLLIYKVSNRFSGVPDRFSGSGSGTDFTLKISRVEAEDVGVYYCSQNTHVPPTFGQGTKVEIERTVAAPSVFIFPPSDEQLKSGTASVVCLLNNFYPREAKVQWKVDNALQSGNSQESVTEQDSKDSTYSLSSTLTLSKADYEKHKVYACEVTHQGLSSPVTKSFNRGEC
notes: He Ab: the mutation stands only in the GpH7-B3-derived H chain; also called He Ab I336E
On to B5, for which, in test [1], the He/Con_3a was 119 relative (control = 100). Further, the He/Con_2b in test [2] is 89.8 relative (control = 100).

B6: GpH7-A5/GpH7-B3 variant I336_14T/GpL16-k0 (antibody, human IgG1, kappa)
heavy 1: not shown
heavy 2: not shown
light: DIVMTQSPLSLPVTPGEPASISCQASESLVHSNRNTYLHWYLQKPGQSPQLLIYKVSNRFSGVPDRFSGSGSGTDFTLKISRVEAEDVGVYYCSQNTHVPPTFGQGTKVEIERTVAAPSVFIFPPSDEQLKSGTASVVCLLNNFYPREAKVQWKVDNALQSGNSQESVTEQDSKDSTYSLSSTLTLSKADYEKHKVYACEVTHQGLSSPVTKSFNRGEC
notes: He Ab: the mutation stands only in the GpH7-B3-derived H chain; also called He Ab I336T
Consider B6, for which, in test [1], the He/Con_3a is 108 relative (control = 100). For the same molecule, in test [2], the He/Con_2b was 89.5 relative (control = 100).

B7: GpH7-A5/GpH7-B3 variant I336_18N/GpL16-k0 (antibody, human IgG1, kappa)
heavy 1: not shown
heavy 2: not shown
light: DIVMTQSPLSLPVTPGEPASISCQASESLVHSNRNTYLHWYLQKPGQSPQLLIYKVSNRFSGVPDRFSGSGSGTDFTLKISRVEAEDVGVYYCSQNTHVPPTFGQGTKVEIERTVAAPSVFIFPPSDEQLKSGTASVVCLLNNFYPREAKVQWKVDNALQSGNSQESVTEQDSKDSTYSLSSTLTLSKADYEKHKVYACEVTHQGLSSPVTKSFNRGEC
notes: He Ab: the mutation stands only in the GpH7-B3-derived H chain; also called He Ab I336N
In the case of B7, the He/Con_3a in test [1] is 104 relative (control = 100). For the same molecule, the He/Con_2b in test [2] is 97.6 relative (control = 100).
